In patent US7939064B2 (priority 2006, dated 2011):
“Also recorded” adds a separate entry of the source.

Columns and labels:
[1] = system: transient cerebral focal ischemia (left middle cerebral artery occlusion); settings: rat, in vivo
TNF-a = settings: rat, in vivo
[2] = system: gene expression in ischemic brain; assay: Real-time PCR quantitation of nine genes in MCAo and NsPLA2-treated brains; format: in vivo, rat; settings: NsPLA2 treatment relative to MCAo brain
From the text: The expression of nine genes that may have important roles in mediating the neuroprotective action of NsPLA2 was quantitated by real-time PCR (FIG. 8). Specific primers were used for PCR amplification. The relative expression of each gene in the heart was obtained after normalizing against an internal control (18S ribosomal RNA) and a calibrator, in this case, the sham-operated control or MCAo brain, FIGS. 8A and B respectively, relative gene expression=1).

[3] = system: Bcl-2, Bcl-XL and Bax genes; assay: Real-time PCR of anti-/pro-apoptotic genes in OGD hippocampal tissues; settings: OGD and NsPLA2 treatment
Procedure: (A) Organotypic hippocampal cultures were subjected to OGD (oxygen-glucose deprivation) for 90 mins and treated with NsPLA2. […] Total RNA was isolated from the hippocampal tissues and subjected to reverse transcription and PCR. The data was derived from 6 independent PCR (n=6).
Thus, we carried out experiments using the organotypic hippocampal cultures, in conditions where oxygen is eliminated by using the 95% N2 and 5% CO2 and glucose was deprived in cultures by using culture media without glucose.

[4] = system: gene expression in ischemic brain; assay: Microarray gene expression analysis (RAE-230A GeneChips) of MCAo and MCAo+NsPLA2 brains; format: in vivo, rat
From the text: Cerebral ischemia is a powerful stimulus for the de novo expression of many gene systems and identification of genes differentially expressed in the ischemic and non-ischemic brain can help illuminate pathophysiology and provide therapeutic targets in ischemia. Analysis of gene expression can also aid in elucidating the role of various pathways or specific genes in the mechanism of action of neuroprotective agents. Consequently, the power of high-density oligonucleotide arrays was harnessed to generate global expression profiles of non-ischemic, ischemic and NsPLA2-treated brains. RNA isolated from the brains of sham-operated rats (sham-op; n=4), rats subjected to 60 min of MCAo (MCAo; n=4) and rats subjected to 60 min of MCAo but treated with 30 μg/200 g body weight NsPLA2 immediately post-occlusion (MCAo+NsPLA2; n=4) was pooled before microarray probe preparation and hybridization to minimize inter-individual variation. Expression analysis was carried out using GeneChips from the RAE-230A Array set, with each chip representing ˜15,900 genes and expressed sequence tags (ESTs). Genes whose expression changed by 1.7-fold or greater in at least one pairwise comparison (between sham-op and MCAo or between MCAo and MCAo+NsPLA2) were deemed significant.
In an attempt to understand the mechanisms by which NsPLA2 may confer neuroprotection, the gene expression profiles of MCAo and MCAo+NsPLA2 were compared. […] They are listed in Table 1 and include genes involved in cell growth and maintenance (retinol-binding protein, regulator of G-protein signalling 2, DNA topoisomerase, X transporter protein 3, hemoglobin &chain complex, nucleosome assembly protein 1-like, cyclin-dependent kinase inhibitor 1A and chloride intracellular channel 4), development (tropomyosin 4 and neurogenic differentiation 1), lipid metabolism (tissue inhibitor of metalloproteinase 1 and sulfotransferase family 1A), Ca^2+-binding (calpactin 1 heavy chain, calgranulin A, protein disulfide isomeraserelated protein and S-100 related protein), maintenance of cytoskeletal structure (tropomyosin 1 and moesin), defense response (CD44 antigen), regulation of blood pressure (angiotensinogen), cell-cell signaling (thyrotropin releasing hormone), antioxidant activity (glutathione-S-transferase), proteolysis (MMP-9), cell adhesion (l-gicerin) and transcriptional regulation (POU domain).

[5] = system: neurons in striatum and cortex of ischemic brains; assay: Haematoxylin and eosin histology of ischemic brain sections; format: in vivo, rat; settings: NsPLA2 at 0 min post-occlusion
From the text: The ability of NsPLA2 to protect neurons from cell death was investigated. Paraffin-embedded rat brains were sectioned and stained with haematoxylin and eosin. […] Neurons appeared shrunken and nuclei were dysmorphic and pyknotic.

[6] = LD50 and signs of toxicity of NsPLA2
[7] = system: neurons in striatum and cortex of ischemic brains; settings: rat, in vivo
[8] = NsPLA2-treated vs saline-treated MCAo brain

B1: NsPLA2 (protein)
chain: NLYQFKNMVQCTVPNRSWWHFADYGCYCGRGGSGTPVDDLDRCCQIHDNCYNEAEKISRCWPYFKTYSYECSQGTLTCKGGNNACAAAVCDCDRLAAICFAGAPYNDNNYNIDLKARCQ
modifications: Naja sputatrix
brain infarction compared to saline-treated control [1]: no effect
infarct size, TTC staining of serial brain sections [1]: significant reduction in infarct size; also recorded: reduced the infarct size but to a lesser extent
reduction of focal ischemia / infarct size (summary statement) [1]: 80%
systemic inflammation (TNF-a): did not induce systemic inflammation
expression of glutathione-S-transferase, CAM kinase II and angiotensinogen (real-time PCR) [2]: increased
expression of thyrotropin releasing hormone, secreted phosphoprotein, moesin, MMP-9, TIMP-1 and calgranulin A (real-time PCR) [2]: decreased
Bax gene expression (real-time PCR) [3]: down-regulated
Bcl-2 gene expression (real-time PCR) [3]: up-regulated
Bcl-XL gene expression (real-time PCR) [3]: up-regulated
fold change, Adipose differentiation-related protein (1390383_at) [4, 8]: −1.75 fold
fold change, CD9 antigen (1371499_at) [4, 8]: −2.6 fold
fold change, CD44 antigen (1387952_a_at) [4, 8]: −3.7 fold
fold change, Calcium/calmodulin-dependent protein kinase (CaM kinase) II gamma (1369993_at) [4, 8]: 1.74 fold
fold change, Chloride intracellular channel 4 (1387420_at) [4, 8]: −1.9 fold
fold change, DNA topoisomerase I (1369421_at) [4, 8]: −4.6 fold
fold change, I-gicerin (1369793_a_at) [4, 8]: −1.75 fold
fold change, NOV protein (1376734_at) [4, 8]: 1.87 fold
fold change, ProSAPiP1 protein (1373057_at) [4, 8]: 1.74 fold
fold change, S100 calcium-binding protein A8 (calgranulin A) (1368494_at) [4, 8]: −1.75 fold
fold change, S-100 related protein (1386890_at) [4, 8]: −1.9 fold
fold change, Similar to endothelial monocyte-activating polypeptide (1375170_at) [4, 8]: −1.9 fold
fold change, Similar to plexinB1 (1374444_at) [4, 8]: 2 fold
fold change, Similar to tropomodulin 3 (1372500_at) [4, 8]: −1.75 fold
fold change, X transporter protein 3 (1369705_at) [4, 8]: −1.75 fold
fold change, aldose reductase-like protein (1370902_at) [4, 8]: −2.6 fold
fold change, angiotensinogen (1387811_at) [4, 8]: 1.87 fold
fold change, calpactin I heavy chain (1367584_at) [4, 8]: −1.75 fold
fold change, cyclin-dependent kinase inhibitor 1A (1387391_at) [4, 8]: −3 fold
fold change, fibulin 2 (1389533_at) [4, 8]: −1.75 fold
fold change, gap junction protein, beta 6 (connexin 30) (1368577_at) [4, 8]: 1.87 fold
fold change, glutathione S-transferase, alpha 1 (1367774_at) [4, 8]: 2 fold
fold change, hemoglobin beta chain complex (1371102_x_at) [4, 8]: −1.75 fold
fold change, homer, neuronal immediate early gene, 1 (1370997_at) [4, 8]: −2.44 fold
fold change, matrix metalloproteinase 9 (1369166_at) [4, 8]: −2 fold
fold change, microtubule-associated protein, RP/EB family, member 1 (1370792_at) [4, 8]: −4.3 fold
fold change, moesin (1368948_at) [4, 8]: −2.3 fold
fold change, neurogenic differentiation 1 (1387288_at) [4, 8]: 1.74 fold
fold change, nucleosome assembly protein 1-like 1 (1373473_a_at) [4, 8]: −2.3 fold
fold change, ornithine decarboxylase antizyme inhibitor (1370575_a_at) [4, 8]: −1.9 fold
fold change, protein disulfide isomerase related protein (calcium-binding protein) (1370007_at) [4, 8]: −2 fold
fold change, regulator of G-protein signaling protein 2 (1368144_at) [4, 8]: −2.44 fold
fold change, retinol binding protein 1 (1367939_at) [4, 8]: −1.75 fold
fold change, serine (or cysteine) proteinase inhibitor, clade H, member 1 (1371310_s_at) [4, 8]: −1.9 fold
fold change, sulfotransferase family 1A, phenol-preferring, member 1 (1370019_at) [4, 8]: 1.87 fold
fold change, syndecan 1 (1367849_at) [4, 8]: −1.9 fold
fold change, thyrotropin releasing hormone (1368912_at) [4, 8]: −3.5 fold
fold change, tissue inhibitor of metalloproteinase 1 (1367712_at) [4, 8]: −2 fold
fold change, tropomyosin 1, alpha (1370288_a_at) [4, 8]: −2.44 fold
fold change, tropomyosin 4 (1368838_at) [4, 8]: −2.1 fold
fold change, tumor rejection antigen gp96 (1388331_at) [4, 8]: −2.1 fold
fold change, glutathione S-transferase, alpha 1 (1367774_at) ([4]; NsPLA2-treated vs saline-treated MCAo brain, listed as PLA2): +2.0 fold
decrease in expression of thyrotropin releasing hormone ([4]; after PLA2 treatment): 3.5 fold
ischemic damage, cellular morphology (haematoxylin and eosin) [5]: significantly reduced ischemic damage
signs of toxicity ([6]; 30 μg/200 g body weight i.v.): did not induce any signs of toxicity
LD50 ([6]; rat, in vivo): 125 μg/200 g body weight
degree of apoptosis (TUNEL) [7]: greatly reduced

B2: tPA: tissue plasminogen activator, thrombolytic serine protease converting plasminogen to plasmin (protein, UniProt P00750 36-562, looked up)
Tissue-type plasminogen …: SYQVICRDEKTQMIYQQHQSWLRPVLRSNRVEYCWCNSGRAQCHSVPVKSCSEPRCFNGGTCQQALYFSDFVCQCPEGFAGKCCEIDTRATCYEDQGISYRGTWSTAESGAECTNWNSSALAQKPYSGRRPDAIRLGLGNHNYCRNPDRDSKPWCYVFKAGKYSSEFCSTPACSEGNSDCYFGNGSAYRGTHSLTESGASCLPWNSMILIGKVYTAQNPSAQALGLGKHNYCRNPDGDAKPWCHVLKNRRLTWEYCDVPSCSTCGLRQYSQPQFRIKGGLFADIASHPWQAAIFAKHRRSPGERFLCGGILISSCWILSAAHCFQERFPPHHLTVILGRTYRVVPGEEEQKFEVEKYIVHKEFDDDTYDNDIALLQLKSDSSRCAQESSVVRTVCLPPADLQLPDWTECELSGYGKHEALSPFYSERLKEAHVRLYPSSRCTSQHLLNRTVTDNMLCAGDTRSGGPQANLHDACQGDSGGPLVCLNDGRMTLVGIISWGLGCGQKDVPGVYTKVTNYLDWIRDNMRP
effect on infarct volume after transient ischemia [1]: did not significantly reduce infarct volume
neuroprotection compared with the phospholipase A2 [1]: less neuroprotective
